Values of other authors as cited in patent US20260263353A1, “PROGRAMMABLE DRUG-DEVICE MICRONEEDLE SYSTEM FOR THE DELIVERY AND MONITORING OF DIABETES AND OBESITY MEDICATIONS” (ALJ Creative Works, LLC, priority 2023, published 2026).

Conditions: once weekly dosing at clinically relevant doses; literature reference [26]

Substance: Insulin ICODEC
- half-life: about 196 hours
- safety and tolerability: safe and well-tolerated
